# How the values were obtained:
# [1] = target: HA-tagged IRF3 (overexpressed in HEK293 cells) (UniProt Q14653)
# [2] = target: HA-tagged VISA (overexpressed in HEK293 cells) (UniProt Q7Z434)
# [3] = target: HA-tagged MITA (overexpressed in HEK293 cells) (UniProt Q86WV6)
# [4] = target: HA-tagged cGAS (overexpressed in HEK293 cells) (UniProt Q8N884)
# IRF3-Y/F = IRF3-Y/F (UniProt Q14653)
# MITA-Y/F = MITA-Y/F (UniProt Q86WV6)
# [5] = target: HA-tagged RIG-I (overexpressed in HEK293 cells) (UniProt O95786)
# [6] = target: HA-tagged TBK1 (overexpressed in HEK293 cells) (UniProt Q9UHD2)
# VISA-6YF = VISA-6YF (UniProt Q7Z434)
# Sequence of VISA-6YF (Q7Z434 other isoform, or with tags, fused parts or gaps): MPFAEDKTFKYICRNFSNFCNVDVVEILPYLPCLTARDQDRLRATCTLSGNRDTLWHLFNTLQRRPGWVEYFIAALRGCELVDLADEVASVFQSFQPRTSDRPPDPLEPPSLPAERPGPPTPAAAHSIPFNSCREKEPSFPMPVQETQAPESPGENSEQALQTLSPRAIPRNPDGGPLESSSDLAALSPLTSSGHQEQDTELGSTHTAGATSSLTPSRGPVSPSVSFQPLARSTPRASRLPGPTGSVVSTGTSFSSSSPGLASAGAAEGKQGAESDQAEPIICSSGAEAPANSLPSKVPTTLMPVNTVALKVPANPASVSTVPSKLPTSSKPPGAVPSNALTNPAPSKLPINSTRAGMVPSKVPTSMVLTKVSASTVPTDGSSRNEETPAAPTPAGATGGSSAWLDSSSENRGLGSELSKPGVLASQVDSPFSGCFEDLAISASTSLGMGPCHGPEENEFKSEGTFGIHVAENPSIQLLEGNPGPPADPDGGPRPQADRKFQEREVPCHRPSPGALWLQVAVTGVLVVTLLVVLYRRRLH
# IRF3 (endogenous, MLFs) = IRF3 (endogenous, MLFs) (UniProt P70671)
# Sequence of IRF3 (endogenous, MLFs) (P70671 whole entry): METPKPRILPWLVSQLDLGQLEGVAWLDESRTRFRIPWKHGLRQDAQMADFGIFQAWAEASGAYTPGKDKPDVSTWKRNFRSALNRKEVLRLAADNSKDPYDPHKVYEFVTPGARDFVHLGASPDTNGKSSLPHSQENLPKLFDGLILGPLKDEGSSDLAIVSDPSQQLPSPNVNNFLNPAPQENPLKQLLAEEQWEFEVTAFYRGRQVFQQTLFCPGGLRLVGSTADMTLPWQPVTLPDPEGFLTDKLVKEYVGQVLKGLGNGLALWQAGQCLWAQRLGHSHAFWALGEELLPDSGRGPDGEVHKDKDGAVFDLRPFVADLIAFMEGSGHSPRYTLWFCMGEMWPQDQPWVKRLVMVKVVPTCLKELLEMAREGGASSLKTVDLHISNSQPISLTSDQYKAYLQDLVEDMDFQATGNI
# TBK1 (endogenous, MLFs) = TBK1 (endogenous, MLFs) (UniProt Q9WUN2)
# Sequence of TBK1 (endogenous, MLFs) (Q9WUN2 whole entry): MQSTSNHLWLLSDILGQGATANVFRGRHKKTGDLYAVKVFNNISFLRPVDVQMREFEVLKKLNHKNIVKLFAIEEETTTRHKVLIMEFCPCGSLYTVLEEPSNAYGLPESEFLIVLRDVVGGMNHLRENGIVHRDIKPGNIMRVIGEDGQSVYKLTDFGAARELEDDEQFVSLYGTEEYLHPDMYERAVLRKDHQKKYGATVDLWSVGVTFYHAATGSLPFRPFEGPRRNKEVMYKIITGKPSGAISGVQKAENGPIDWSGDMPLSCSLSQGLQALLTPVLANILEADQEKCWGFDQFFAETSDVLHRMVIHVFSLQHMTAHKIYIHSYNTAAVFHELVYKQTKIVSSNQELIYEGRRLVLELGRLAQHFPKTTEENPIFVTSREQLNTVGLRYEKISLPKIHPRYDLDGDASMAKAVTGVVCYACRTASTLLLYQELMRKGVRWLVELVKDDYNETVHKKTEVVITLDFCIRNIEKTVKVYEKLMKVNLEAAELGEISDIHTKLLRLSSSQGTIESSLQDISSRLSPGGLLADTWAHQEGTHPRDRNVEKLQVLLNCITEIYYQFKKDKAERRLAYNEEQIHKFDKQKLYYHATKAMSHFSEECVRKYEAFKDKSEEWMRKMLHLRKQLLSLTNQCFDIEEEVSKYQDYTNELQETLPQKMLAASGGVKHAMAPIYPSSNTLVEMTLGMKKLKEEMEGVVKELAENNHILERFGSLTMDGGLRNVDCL
# [7] = target: MITA/STING (endogenous, MLFs) (UniProt Q3TBT3)
# Sequence of MITA/STING (endogenous, MLFs) (Q3TBT3 whole entry): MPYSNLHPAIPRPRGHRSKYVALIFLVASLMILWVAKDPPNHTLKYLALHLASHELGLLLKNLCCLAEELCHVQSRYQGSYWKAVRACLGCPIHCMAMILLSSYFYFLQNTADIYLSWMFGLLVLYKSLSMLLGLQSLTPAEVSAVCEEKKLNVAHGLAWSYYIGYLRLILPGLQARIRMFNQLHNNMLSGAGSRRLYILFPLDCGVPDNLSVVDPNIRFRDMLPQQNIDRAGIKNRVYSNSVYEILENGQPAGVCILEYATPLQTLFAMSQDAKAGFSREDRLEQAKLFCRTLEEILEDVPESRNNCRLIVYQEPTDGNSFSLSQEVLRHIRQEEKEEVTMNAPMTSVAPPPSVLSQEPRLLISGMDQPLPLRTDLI
# [8] = target: VISA/MAVS (endogenous, MLFs) (UniProt Q8VCF0)
# RIG-I (endogenous, MLFs) = RIG-I (endogenous, MLFs) (UniProt Q6Q899)
# Sequence of RIG-I (endogenous, MLFs) (Q6Q899 whole entry): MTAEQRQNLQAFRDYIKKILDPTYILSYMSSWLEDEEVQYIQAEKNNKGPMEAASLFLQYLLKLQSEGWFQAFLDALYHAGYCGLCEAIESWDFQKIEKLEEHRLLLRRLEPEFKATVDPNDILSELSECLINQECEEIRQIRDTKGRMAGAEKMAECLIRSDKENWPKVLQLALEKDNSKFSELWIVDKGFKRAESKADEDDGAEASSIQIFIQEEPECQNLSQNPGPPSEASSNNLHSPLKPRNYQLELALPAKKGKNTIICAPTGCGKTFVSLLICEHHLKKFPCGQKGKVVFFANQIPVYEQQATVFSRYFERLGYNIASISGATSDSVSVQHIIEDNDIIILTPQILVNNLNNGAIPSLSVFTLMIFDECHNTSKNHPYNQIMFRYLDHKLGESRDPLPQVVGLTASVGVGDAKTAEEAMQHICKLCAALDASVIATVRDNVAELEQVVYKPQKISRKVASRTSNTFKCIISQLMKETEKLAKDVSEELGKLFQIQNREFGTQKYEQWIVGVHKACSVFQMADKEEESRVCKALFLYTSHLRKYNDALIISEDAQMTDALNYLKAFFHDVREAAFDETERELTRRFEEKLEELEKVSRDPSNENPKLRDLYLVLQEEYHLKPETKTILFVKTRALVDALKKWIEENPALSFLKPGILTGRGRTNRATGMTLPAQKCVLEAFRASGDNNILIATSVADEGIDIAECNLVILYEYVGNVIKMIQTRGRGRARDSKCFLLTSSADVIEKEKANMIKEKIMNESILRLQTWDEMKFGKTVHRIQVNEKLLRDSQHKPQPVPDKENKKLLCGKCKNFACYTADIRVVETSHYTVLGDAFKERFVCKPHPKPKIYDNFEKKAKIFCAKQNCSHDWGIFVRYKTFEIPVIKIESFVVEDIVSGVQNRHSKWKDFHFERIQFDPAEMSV
# Sequence of HA-tagged cGAS (overexpressed in HEK293 cells) (Q8N884 whole entry): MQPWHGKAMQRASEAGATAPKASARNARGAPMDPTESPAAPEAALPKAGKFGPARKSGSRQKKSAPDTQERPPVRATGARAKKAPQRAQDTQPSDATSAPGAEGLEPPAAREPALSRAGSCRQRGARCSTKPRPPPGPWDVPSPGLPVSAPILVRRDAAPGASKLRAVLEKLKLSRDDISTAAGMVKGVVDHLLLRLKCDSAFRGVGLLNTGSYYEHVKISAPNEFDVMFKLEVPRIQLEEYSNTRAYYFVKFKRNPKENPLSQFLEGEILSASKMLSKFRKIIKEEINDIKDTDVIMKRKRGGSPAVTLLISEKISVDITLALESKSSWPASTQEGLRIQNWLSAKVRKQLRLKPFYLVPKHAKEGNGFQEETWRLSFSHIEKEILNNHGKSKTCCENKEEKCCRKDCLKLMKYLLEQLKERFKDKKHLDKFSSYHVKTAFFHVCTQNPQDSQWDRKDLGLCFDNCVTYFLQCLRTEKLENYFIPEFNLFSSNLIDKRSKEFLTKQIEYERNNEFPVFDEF
# Sequence of HA-tagged IRF3 (overexpressed in HEK293 cells) (Q14653 whole entry): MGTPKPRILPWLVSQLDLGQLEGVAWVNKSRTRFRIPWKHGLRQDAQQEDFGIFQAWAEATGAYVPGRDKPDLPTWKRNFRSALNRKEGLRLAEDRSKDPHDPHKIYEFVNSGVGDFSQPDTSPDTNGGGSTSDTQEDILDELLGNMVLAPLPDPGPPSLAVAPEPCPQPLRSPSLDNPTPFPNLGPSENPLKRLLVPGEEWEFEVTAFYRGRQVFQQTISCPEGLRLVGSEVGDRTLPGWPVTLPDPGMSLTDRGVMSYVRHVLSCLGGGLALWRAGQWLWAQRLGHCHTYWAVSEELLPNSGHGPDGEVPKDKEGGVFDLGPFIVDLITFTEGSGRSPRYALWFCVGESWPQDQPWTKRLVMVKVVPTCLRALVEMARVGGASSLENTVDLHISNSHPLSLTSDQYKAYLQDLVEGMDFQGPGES
# Sequence of IRF3-Y/F (Q14653 whole entry Y107F): as the sequence (Q14653 whole entry) above, with Y107F counted along it
# Sequence of HA-tagged MITA (overexpressed in HEK293 cells) (Q86WV6 whole entry): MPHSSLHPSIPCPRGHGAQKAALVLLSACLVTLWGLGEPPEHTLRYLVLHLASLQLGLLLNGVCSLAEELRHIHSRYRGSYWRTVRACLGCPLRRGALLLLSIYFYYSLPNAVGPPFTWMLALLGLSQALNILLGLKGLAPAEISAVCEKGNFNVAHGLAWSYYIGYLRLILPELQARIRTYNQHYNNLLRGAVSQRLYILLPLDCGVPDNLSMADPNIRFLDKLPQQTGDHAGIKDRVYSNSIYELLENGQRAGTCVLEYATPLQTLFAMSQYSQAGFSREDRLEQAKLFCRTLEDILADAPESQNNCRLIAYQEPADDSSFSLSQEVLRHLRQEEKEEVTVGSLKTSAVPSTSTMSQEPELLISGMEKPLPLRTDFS
Substance,"tyrosine phosphorylation (IP with HA antibody, immunoblot) [1]","tyrosine phosphorylation (IP with HA antibody, immunoblot) [2]","tyrosine phosphorylation (IP with HA antibody, immunoblot) [3]","tyrosine phosphorylation (IP with HA antibody, immunoblot) [4]","SRC-mediated tyrosine phosphorylation (IP, immunoblot) (IRF3-Y/F)","SRC-mediated tyrosine phosphorylation (IP, immunoblot) (MITA-Y/F)","tyrosine phosphorylation (IP with HA antibody, immunoblot) [5]","tyrosine phosphorylation (IP with HA antibody, immunoblot) [6]","SRC-mediated tyrosine phosphorylation (IP, immunoblot) (VISA-6YF)","virus-induced tyrosine phosphorylation in SRC-deficient MLFs (IP, immunoblot) (IRF3 (endogenous, MLFs))","virus-induced tyrosine phosphorylation in SRC-deficient MLFs (IP, immunoblot) (TBK1 (endogenous, MLFs))","virus-induced tyrosine phosphorylation in SRC-deficient MLFs (IP, immunoblot) [7]","virus-induced tyrosine phosphorylation in SRC-deficient MLFs (IP, immunoblot) [8]","virus-induced tyrosine phosphorylation in SRC-deficient MLFs (IP, immunoblot) (RIG-I (endogenous, MLFs))"
Flag-tagged SRC (overexpressed in HEK293 cells),"overexpression of SRC caused tyrosine phosphorylation of RIG-I, VISA, MITA, TBK1 and IRF3, but not cGAS","overexpression of SRC caused tyrosine phosphorylation of RIG-I, VISA, MITA, TBK1 and IRF3, but not cGAS","overexpression of SRC caused tyrosine phosphorylation of RIG-I, VISA, MITA, TBK1 and IRF3, but not cGAS","overexpression of SRC caused tyrosine phosphorylation of RIG-I, VISA, MITA, TBK1 and IRF3, but not cGAS",Mutation of Y107 of IRF3 to F (IRF3-Y/F) impaired SRC-mediated tyrosine phosphorylation of IRF3,Mutation of Y245 of MITA to F (MITA-Y/F) abolished SRC-mediated tyrosine phosphorylation of MITA,"overexpression of SRC caused tyrosine phosphorylation of RIG-I, VISA, MITA, TBK1 and IRF3, but not cGAS","overexpression of SRC caused tyrosine phosphorylation of RIG-I, VISA, MITA, TBK1 and IRF3, but not cGAS","Simultaneous mutation of Y9, Y92, Y95, Y130, Y140 and Y460 of VISA to F (VISA-6YF) impaired SRC-mediated tyrosine phosphorylation",–,–,–,–,–
"SRC (endogenous, MLFs)",–,–,–,–,–,–,–,–,–,"SRC-deficiency impaired SeV- or HSV-1-induced tyrosine phosphorylation of endogenous RIG-I, VISA/MAVS, TBK1, IRF3 and MITA/STING","SRC-deficiency impaired SeV- or HSV-1-induced tyrosine phosphorylation of endogenous RIG-I, VISA/MAVS, TBK1, IRF3 and MITA/STING","SRC-deficiency impaired SeV- or HSV-1-induced tyrosine phosphorylation of endogenous RIG-I, VISA/MAVS, TBK1, IRF3 and MITA/STING","SRC-deficiency impaired SeV- or HSV-1-induced tyrosine phosphorylation of endogenous RIG-I, VISA/MAVS, TBK1, IRF3 and MITA/STING","SRC-deficiency impaired SeV- or HSV-1-induced tyrosine phosphorylation of endogenous RIG-I, VISA/MAVS, TBK1, IRF3 and MITA/STING"

# From patent publication US20210346401
